Measured values from patent publication US20210179715A1.
Substitutions are numbered along the chain they refer to. Values joined by “and” are separate entries in the source; they are usually repeats but may differ in a detail not shown here. Equal values may be shown once. Read-outs that look alike come from different tables or passages of the source.

T1: 27mer cyno CD3 polypeptide conjugated to biotin (cynomolgus monkey)
T1 sequence (peptide, conjugated to biotin (site not stated)): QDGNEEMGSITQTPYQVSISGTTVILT

T2: human LY6G6D-Fc (human) (UniProt O95868)
T2 sequence: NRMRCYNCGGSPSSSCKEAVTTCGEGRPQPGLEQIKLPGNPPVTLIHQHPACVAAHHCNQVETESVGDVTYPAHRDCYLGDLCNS

B1: LY6G6D TDB assembled using a one-cell system comprising the anti-LY6G6D 20A12.QNTv12 arm (one-cell) and the anti-CD3 38E4v1 (WT) arm (bispecific antibody, V domains shown)
VH 1: EVQLLESGGGLVQPGGSLRLSCAASGFDFVNNAMIWVREAPGKGLEWVSALSFADNTAYYATWASGRFTISRDSSKTTVYLQMNSLRAEDTAVYYCMRGDLWGPGTLVTVSS
VL 1: DIQMTQSPSTLSASVGDRVTITCQASESITRYLNWYQKKPGKAPKLLIYDASKLPSGVPSRFSGSGSGTEFTLTISSLQPDDFATYYCQSTSFRGRSYQNTFGGGTKVEIK
VH 2: EVQLVQSGAEVKKPGASVKVSCKASGFTFTSYYIHWVRKAPGQGLEWIGWIYPENDNTKYNEKFKDRVTITADTSTSTAYLELSSLRSEDTAVYYCARDGYSRYYFDYWGQGTLVTVSS
VL 2: DIVMTQSPDSLAVSLGERATINCKSSQSLLNSRTRKNYLAWYQEKPGQSPKLLIYWTSTRKSGVPDRFSGSGSGTDFTLTISSLQAEDVAVYYCKQSFILRTFGQGTKVEIK
B2: LY6G6D TDB assembled using a one-cell system comprising the anti-LY6G6D 20A12.QNTv12 arm (one-cell) and the anti-CD3 38E4v1 MD1 arm (bispecific antibody, V domains shown)
VH 1: B1 VH 1
VL 1: B1 VL 1
VH 2: B1 VH 2
VL 2: B1 VL 2 with S49P, T57A, K61E, K95T
B3: LY6G6D TDB comprising the anti-LY6G6D 20A12.QNTv12 arm (two-cell) and the anti-CD3 40G5c arm (bispecific antibody, part only; not given: anti-CD3 arm and constant regions, V domains shown, part only)
VH: B1 VH 1 with E39Q
VL: B1 VL 1 with K38Q
B4: LY6G6D TDB assembled using a one-cell system comprising the anti-LY6G6D 20A12.QNTv12 arm (one-cell) and the anti-CD3 38E4v1 MD4 arm (bispecific antibody, V domains shown)
VH 1: B1 VH 1
VL 1: B1 VL 1
VH 2: B1 VH 2
VL 2: B1 VL 2 with S49P, T57A
B5: LY6G6D TDB comprising the anti-LY6G6D 20A12.QNTv12 arm (two-cell) and the anti-CD3 38E4v1 arm (bispecific antibody, V domains shown)
VH 1: B1 VH 1 with E39Q
VL 1: B1 VL 1 with K38Q
VH 2: B1 VH 2 with K39Q
VL 2: B1 VL 2 with E44Q
B6: LY6G6D TDB comprising the anti-LY6G6D 1G4 arm and the anti-CD3 38E4.v1 arm (bispecific antibody, V domains shown)
VH 1: EVQLVQSGAEVKKPGASVKVSCKASGYTFTTYVMHWVRQAPGQGLEWMGYINPYNDGTKYNEKFKGRVTMTRDTSISTAYMELSRLRSDDTAVYYCGRRNFDYWGQGTLVTVSS
VL 1: DIVMTQSPDSLAVSLGERATINCKSSQSLLLSGNQENYLAWHQQKPGQPPKTLITWASTRISGVPDRFSGSGSGTDFTLTISSLQAEDVAVYYCQQSYSAPYTFGGGTKVEIK
VH 2: B1 VH 2 with K39Q
VL 2: B1 VL 2 with E44Q

What was measured:
[1] = molecular target: T1, 27mer cyno CD3 polypeptide conjugated to biotin (cynomolgus monkey); assay: BIAcore T200 SPR; biotin 27mer CD3 peptide on SA chip; TDB flowed; 37 C
[2] = molecular target: T1, 27mer cyno CD3 polypeptide conjugated to biotin (cynomolgus monkey); assay: as above; remark: listed apart in the source
[3] = molecular target: cynomolgus LY6G6D-Fc (cynomolgus monkey); assay: BIAcore SPR; LY6G6D-Fc on chip; TDB flowed; 37 C
human LY6G6D-Fc (human) [4] = molecular target: T2, human LY6G6D-Fc (human); assay: BIAcore SPR; LY6G6D-Fc on chip; TDB flowed; 37 C
human LY6G6D-Fc (human) [5] = molecular target: T2, human LY6G6D-Fc (human); assay: BIAcore SPR; LY6G6D-Fc on chip; TDB flowed; 37 C; remark: listed apart in the source
[6] = molecular target: cynomolgus LY6G6D-Fc (cynomolgus monkey); assay: BIAcore SPR; LY6G6D-Fc on chip; TDB flowed; 37 C; remark: listed apart in the source
[7] = molecular target: cynomolgus LY6G6D-Fc (cynomolgus monkey); assay: BIAcore SPR; two-cell TDB

Binder	Kd [1] [nM]	Kd [2]	koff [2]	kon [2]	Kd [3] [nM]	koff [3] [s⁻¹]	kon [3] [M⁻¹ s⁻¹]	Kd (human LY6G6D-Fc (human) [4]) [nM]	koff (human LY6G6D-Fc (human) [4]) [s⁻¹]	kon (human LY6G6D-Fc (human) [4]) [M⁻¹ s⁻¹]	koff (human LY6G6D-Fc (human) [5]) [s⁻¹]	Kd [6] [nM]	koff [6] [s⁻¹]	kon [6] [M⁻¹ s⁻¹]	Kd [7] [nM]
B1	15.9	15.4 nM and 16.5 nM	0.0399 s⁻¹ and 0.0437 s⁻¹	2.6e+06 M⁻¹ s⁻¹ and 2.65e+06 M⁻¹ s⁻¹											
B2	26.1	26.6 nM and 25.6 nM	0.0383 s⁻¹ and 0.0376 s⁻¹	1.44e+06 M⁻¹ s⁻¹ and 1.47e+06 M⁻¹ s⁻¹	3.63	0.000512	141000								
B3								5.62	0.000453	80600	0.000456	4.91	0.000413	84300	
B4	14.4	14 nM and 14.7 nM	0.0433 s⁻¹ and 0.0426 s⁻¹	3.09e+06 M⁻¹ s⁻¹ and 2.89e+06 M⁻¹ s⁻¹	2.62	0.000574	219000								
B5	14.8	13 nM and 16.5 nM	0.0337 s⁻¹ and 0.0364 s⁻¹	2.6e+06 M⁻¹ s⁻¹ and 2.21e+06 M⁻¹ s⁻¹	1.92	0.000444	231000					2.29	0.00038	166000	2.29
B6												13.1	0.00936	714000	
